Binding signal data for three molecules are collected here from PMC7952577, “Overcoming the design, build, test bottleneck for synthesis of nonrepetitive protein-RNA cassettes”.

What all share (assay): iSort-seq, translational repression in E. coli Top10, 37 C
Details in all cases: tags: C-GFP (kept); chain copies: 2

The target in one data set is PP7 coat protein dlFG (Pseudomonas phage PP7 (Bacteriophage …, UniProt P03630, ins1-2LA;del68-75insSG)).
Data set [1] has as its target T1, Qbeta coat protein (strain MX1) (Qbeta virus (strain MX1), UniProt Q9T0R9).
T1 sequence: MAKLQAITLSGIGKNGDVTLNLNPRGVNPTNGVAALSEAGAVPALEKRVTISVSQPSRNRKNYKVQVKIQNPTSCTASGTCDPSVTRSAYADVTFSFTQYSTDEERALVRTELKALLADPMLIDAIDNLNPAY

For data set [2], the target named is MS2 coat protein V29I dlFG (Escherichia phage MS2 (Bacteriophage …, UniProt P03612, V30I;del68-81insG)).

B1: pp7_wt_5_d1 (ssRNA)
RNA: UUAAUUAAAGAGGAGAAAGGUACCCAUGCUAAGGAGUUUAUAUGGAAACCCUUAUGUGAGCAAGGGCGAGGAGGAUAACAUGGCCAUCAUCAAGGAGUUCAUGCGCUUCAAGGUGCACAUGGAGGG
Regarding B1, the binding signal with PP7 coat protein dlFG was 6.62 Rscore (log-likelihood ratio).

B2: qb_NOTpre_changeBulge_0004_d2 (ssRNA)
RNA: UUAAUUAAAGAGGAGAAAGGUACCCAUGGCAUGCAUGUCUAAGACAGCAUCUGUGAGCAAGGGCGAGGAGGAUAACAUGGCCAUCAUCAAGGAGUUCAUGCGCUUCAAGGUGCACAUGGAGGG
Regarding B2, the binding signal in data set [1] was 9.05 Rscore (log-likelihood ratio).

B3: ms2_wt_1_d1 (ssRNA)
RNA: UUAAUUAAAGAGGAGAAAGGUACCCAUGCACAUGAGGAUUACCCAUGUUGUGAGCAAGGGCGAGGAGGAUAACAUGGCCAUCAUCAAGGAGUUCAUGCGCUUCAAGGUGCACAUGGAGGG
For B3, in data set [2], the binding signal is 21.6 Rscore (log-likelihood ratio).
